Measurements reported in patent publication US20220003782A1 (METAFORA BIOSYSTEMS, published 2022).

Columns and labels:
[1] = molecular target: CAT1/SLC7A1 (UniProt P30825); test: flow cytometry, HEK293T cells with siSMVT A (endogenous receptor), saturating ligand, Alexa488 anti-mouse IgG1
[2] = molecular target: CAT1/SLC7A1 (UniProt P30825); test: flow cytometry, HEK293T cells with control siRNA siLUC (endogenous receptor), saturating ligand, Alexa488 anti-mouse IgG1
[3] = molecular target: XPR1/SLC53A1; test: flow cytometry, HEK293T cells with siSMVT A (endogenous receptor), saturating ligand, Alexa488 anti-mouse IgG1
[4] = molecular target: XPR1/SLC53A1; test: flow cytometry, HEK293T cells with control siRNA siLUC (endogenous receptor), saturating ligand, Alexa488 anti-mouse IgG1
[5] = molecular target: GLUT1/SLC2A1 (glucose transporter type 1) (UniProt P11166); test: flow cytometry, HEK293T cells with siSMVT A (endogenous receptor), saturating ligand, Alexa488 anti-mouse IgG1
[6] = molecular target: GLUT1/SLC2A1 (glucose transporter type 1) (UniProt P11166); test: flow cytometry, HEK293T cells with control siRNA siLUC (endogenous receptor), saturating ligand, Alexa488 anti-mouse IgG1
[7] = molecular target: T1, sodium-dependent multivitamin transporter / solute carrier family 5 member 6 (SMVT/SLC5A6) (human, UniProt Q9Y289 1-635); test: flow cytometry on HEK293T cells, siSMVT A against siLUC control
T1 construct: also called SLC5A6/SMVT
T1 sequence: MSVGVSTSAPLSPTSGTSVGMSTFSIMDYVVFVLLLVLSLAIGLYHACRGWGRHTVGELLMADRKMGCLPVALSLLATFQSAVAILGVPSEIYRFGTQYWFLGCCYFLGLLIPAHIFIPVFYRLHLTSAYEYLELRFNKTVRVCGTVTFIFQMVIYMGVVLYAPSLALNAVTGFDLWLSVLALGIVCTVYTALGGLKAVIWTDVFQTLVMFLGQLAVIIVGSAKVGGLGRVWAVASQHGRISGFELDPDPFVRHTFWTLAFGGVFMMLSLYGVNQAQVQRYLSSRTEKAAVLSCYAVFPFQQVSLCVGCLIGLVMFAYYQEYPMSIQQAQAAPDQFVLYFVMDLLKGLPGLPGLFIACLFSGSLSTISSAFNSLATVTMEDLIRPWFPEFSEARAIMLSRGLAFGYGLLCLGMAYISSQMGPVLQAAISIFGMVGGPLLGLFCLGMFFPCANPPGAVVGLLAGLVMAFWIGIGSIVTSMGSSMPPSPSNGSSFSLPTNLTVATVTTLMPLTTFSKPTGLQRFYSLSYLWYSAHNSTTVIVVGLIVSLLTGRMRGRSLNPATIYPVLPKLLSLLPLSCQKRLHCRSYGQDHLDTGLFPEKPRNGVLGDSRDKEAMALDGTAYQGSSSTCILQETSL

Sequence of XPR1/SLC53A1 (Q9UH99 whole entry): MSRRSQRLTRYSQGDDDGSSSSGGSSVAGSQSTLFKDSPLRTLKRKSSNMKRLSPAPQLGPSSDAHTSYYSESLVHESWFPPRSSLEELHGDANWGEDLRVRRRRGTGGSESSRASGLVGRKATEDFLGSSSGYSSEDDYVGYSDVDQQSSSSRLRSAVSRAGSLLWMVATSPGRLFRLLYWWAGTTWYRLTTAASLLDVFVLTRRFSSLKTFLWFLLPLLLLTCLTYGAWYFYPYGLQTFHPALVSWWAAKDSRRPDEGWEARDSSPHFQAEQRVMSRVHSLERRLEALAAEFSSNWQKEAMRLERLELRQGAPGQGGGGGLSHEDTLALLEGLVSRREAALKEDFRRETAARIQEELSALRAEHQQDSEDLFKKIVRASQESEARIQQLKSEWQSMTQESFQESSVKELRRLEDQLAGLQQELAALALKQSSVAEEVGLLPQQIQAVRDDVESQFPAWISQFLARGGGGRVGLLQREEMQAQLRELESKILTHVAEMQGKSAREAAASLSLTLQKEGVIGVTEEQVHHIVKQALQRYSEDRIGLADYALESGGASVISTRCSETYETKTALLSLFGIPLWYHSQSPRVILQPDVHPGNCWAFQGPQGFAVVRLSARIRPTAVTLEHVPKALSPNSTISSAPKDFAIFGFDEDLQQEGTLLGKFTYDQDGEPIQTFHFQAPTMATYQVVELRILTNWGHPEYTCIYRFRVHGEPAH
Sequence of GLUT1/SLC2A1 (glucose transporter type 1) (P11166 whole entry): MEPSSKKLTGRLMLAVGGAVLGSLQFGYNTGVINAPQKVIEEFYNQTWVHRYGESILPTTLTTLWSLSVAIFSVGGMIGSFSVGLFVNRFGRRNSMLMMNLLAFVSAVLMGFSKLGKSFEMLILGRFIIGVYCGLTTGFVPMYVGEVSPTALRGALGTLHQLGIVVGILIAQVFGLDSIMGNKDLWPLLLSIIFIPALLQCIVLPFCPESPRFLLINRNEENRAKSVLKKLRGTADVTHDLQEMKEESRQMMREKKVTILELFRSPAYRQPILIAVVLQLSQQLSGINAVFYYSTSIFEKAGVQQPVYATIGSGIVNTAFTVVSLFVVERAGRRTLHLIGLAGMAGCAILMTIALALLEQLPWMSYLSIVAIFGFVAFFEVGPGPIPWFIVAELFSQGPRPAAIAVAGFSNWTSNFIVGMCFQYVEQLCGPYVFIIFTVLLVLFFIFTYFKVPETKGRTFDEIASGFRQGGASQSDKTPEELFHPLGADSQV
Sequence of CAT1/SLC7A1 (P30825 whole entry): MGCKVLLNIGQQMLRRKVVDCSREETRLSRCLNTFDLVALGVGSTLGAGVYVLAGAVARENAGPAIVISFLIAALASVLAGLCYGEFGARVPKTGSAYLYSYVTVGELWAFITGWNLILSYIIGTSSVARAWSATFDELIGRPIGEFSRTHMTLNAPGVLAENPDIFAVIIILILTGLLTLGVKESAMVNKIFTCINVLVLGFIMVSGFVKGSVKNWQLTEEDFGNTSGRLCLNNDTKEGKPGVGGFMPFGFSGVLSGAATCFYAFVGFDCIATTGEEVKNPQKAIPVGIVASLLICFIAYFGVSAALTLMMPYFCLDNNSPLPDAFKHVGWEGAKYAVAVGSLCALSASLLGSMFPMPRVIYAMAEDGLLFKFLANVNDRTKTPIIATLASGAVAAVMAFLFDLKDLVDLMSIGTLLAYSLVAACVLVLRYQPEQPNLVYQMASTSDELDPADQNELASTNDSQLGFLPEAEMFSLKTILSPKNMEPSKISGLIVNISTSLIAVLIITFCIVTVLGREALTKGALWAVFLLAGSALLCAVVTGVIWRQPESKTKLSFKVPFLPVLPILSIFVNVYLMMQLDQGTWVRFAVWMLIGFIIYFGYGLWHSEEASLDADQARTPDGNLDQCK

In the case of “RBD derived from the bovine leukemia virus (BLV), fusion protein with mFC (Fc fusion)”, the relative specific binding (delta of the geometric mean of the fluorescence intensity) [1] is reported as 110 and the relative specific binding (delta of the geometric mean of the fluorescence intensity) [2] is reported as 110.

“RBD from a xenotropic murine retrovirus (XRBD), fusion protein with mFC (Fc fusion)” was tested, and the relative specific binding (delta of the geometric mean of the fluorescence intensity) [3] was 14.6 and the relative specific binding (delta of the geometric mean of the fluorescence intensity) [4] was 12.6.

“human T-cell leukemia virus type 2 (HTLV2)-RBD, fusion protein with mFC (Fc fusion)” was tested, and the relative specific binding (delta of the geometric mean of the fluorescence intensity) [5] was 21.3 and the relative specific binding (delta of the geometric mean of the fluorescence intensity) [6] was 18.3.

B1: PERV-B RBD ligand fused to a mouse Fc fragment (SEQ ID NO: 13) (Fc fusion)
chain: KRLIDSSNPHRPLSLTWLIIDPDTGVTVNSTRGVAPRGTWWPELHFCLRLINPAVKSTPPNLVRSYGFYCCPGTEKEKYCGGSEESFCRRWSCVTSNDGDWKWPISLQDRVKFSFVNSGPGKYKVMKLYKDKSCSPSDLDYLKISFTEKGKQENIQKWINGMSWGIVFYKYGGGAGSTLTIRLRIEAGTEPPVAVGSVDVPRDCGCKPCICTVPEVSSVFIFPPKPKDVLTITLTPKVTCVVVDISKDDPEVQFSWFVDDVEVHTAQTQPREEQFNSTFRSVSELPIMHQDWLNGKEFKCRVNSAAFPAPIEKTISKTKGRPKAPQVYTIPPPKEQMAKDKVSLTCMITDFFPEDITVEWQWNGQPAENYKNTQPIMDTDGSYFVYSKLNVQKSNWEAGNTFTCSVLHEGLHNHHTEKSLSHSPGK
In the case of B1, the “fold drop of specific binding with anti-SMVT siRNA against siLUC” value [7] is reported as greater than 2 fold.
